Biological target: HA-OGT-D4 (D-box mutant R351A/L354A) (UniProt O15294)

**Q.** For “Flag-CDC20 (from UniProt Q12834 1-499) (natural protein)”, which decrease in ubiquitination level of HA-OGT-D4 against HA-OGT-WT in 293T cells transfected with Myc-Ub and Flag-CDC20 (anti-HA precipitates blotted with anti-Myc) is on record?
**A.** The decrease in ubiquitination level of HA-OGT-D4 against HA-OGT-WT in 293T cells transfected with Myc-Ub and Flag-CDC20 (anti-HA precipitates blotted with anti-Myc) was 50%.

— publication PMC11261447
